Consider nine molecules from paper PMC7059380, “In vivo visualization of the i-motif DNA secondary structure in the Bombyx mori testis”.

Data set [1] deals with T1, BmILF (Bombyx mori, UniProt A0A1U9WZ16 1-382).
T1 sequence: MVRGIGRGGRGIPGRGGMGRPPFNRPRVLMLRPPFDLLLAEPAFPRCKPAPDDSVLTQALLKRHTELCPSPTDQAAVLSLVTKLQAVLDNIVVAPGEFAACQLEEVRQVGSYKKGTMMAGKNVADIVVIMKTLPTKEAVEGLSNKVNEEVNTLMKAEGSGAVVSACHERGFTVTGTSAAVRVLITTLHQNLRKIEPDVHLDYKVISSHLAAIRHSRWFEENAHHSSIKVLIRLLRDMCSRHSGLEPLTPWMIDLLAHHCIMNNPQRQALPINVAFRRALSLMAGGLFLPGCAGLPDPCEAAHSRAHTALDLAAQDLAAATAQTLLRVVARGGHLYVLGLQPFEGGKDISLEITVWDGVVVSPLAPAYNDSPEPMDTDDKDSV
The data set is described as follows: EMSA; EMSA: 20 ul, 2.5% glycerol, 0.05% NP-40, 5 mM MgCl2, 4 mM EDTA, RT 20 min; probes folded in 50 mM Tris-TAE pH 4.0 (also 6.0, 8.0). MST: NanoTemper buffer with 100 mM Tris pH 6.0, 2.93-6000 nM BmILF, 25 C. The conditions noted are these: protein: recombinant, label: 5' biotin. In general terms: A gel shift assay detects complexes by their altered migration in electrophoresis.

The target in data set [2] is T1, BmILF. The data set is described as follows: EMSA; pH 4.0; EMSA: 20 ul, 2.5% glycerol, 0.05% NP-40, 5 mM MgCl2, 4 mM EDTA, RT 20 min; probes folded in 50 mM Tris-TAE pH 4.0 (also 6.0, 8.0). MST: NanoTemper buffer with 100 mM Tris pH 6.0, 2.93-6000 nM BmILF, 25 C. The conditions noted are these: protein: recombinant; label: 5' biotin; no i-motif by CD.
In data set [3] the target is T1, BmILF. The data set is described as follows: EMSA; Hill fit; EMSA: 20 ul, 2.5% glycerol, 0.05% NP-40, 5 mM MgCl2, 4 mM EDTA, RT 20 min; probes folded in 50 mM Tris-TAE pH 4.0 (also 6.0, 8.0). MST: NanoTemper buffer with 100 mM Tris pH 6.0, 2.93-6000 nM BmILF, 25 C. The conditions noted are these: protein: recombinant; label: 5' biotin; i-motif (folded by slow cooling at acidic pH).

The target of data set [4] is T1, BmILF. The data set is described as follows: MST; pH 6.0, 50 nM probe; EMSA: 20 ul, 2.5% glycerol, 0.05% NP-40, 5 mM MgCl2, 4 mM EDTA, RT 20 min; probes folded in 50 mM Tris-TAE pH 4.0 (also 6.0, 8.0). MST: NanoTemper buffer with 100 mM Tris pH 6.0, 2.93-6000 nM BmILF, 25 C. The conditions noted are these: protein: recombinant; label: Cy5; i-motif (folded at pH 4.0).

B1: Hairpin (structured_DNA)
DNA: CAGTGGCGGCCATCCGTTTAATATTACCGGATGGCCGCGCGAT
On to B1, for which the binding result with BmILF [1] (hairpin) is on record as “no binding”.

B2: BGIBMGA003213-Mut (ssDNA)
DNA: CATTGCGATATCAGCGTTATCAGTATCAAT
As to B2, in the data set with BmILF [2], the binding result is listed as “no binding”.

B3: BGIBMGA003213-G4 (structured_DNA)
DNA: GGGGGTGCGGGGGACGCGGGGGGCGCGGGG
Consider B3, for which, in the data set with BmILF [1] (G4), the binding result is on record as “no binding”.

B4: BmPOUM2-G4 (structured_DNA)
DNA: CCAGTGCGGGGCGCGAGGGGGCCGAGGGGCGGGGCAACAA
Turning to B4, the binding result in the data set with BmILF [1] (G4) is listed as “no binding”.

B5: BmPOUM2-WT i-motif (EMSA) (structured_DNA)
DNA: TTGTTGCCCCGCCCCTCGGCCCCCTCGCGCCCCGCACTGG
Regarding B5, the Kd (in general, the concentration at which binding is half-saturated) in the data set with BmILF [3] turned out to be 119 nM.

B6: BmPOUM2-WT i-motif (MST) (structured_DNA)
DNA: TTGTTGCCCCGCCCCTCGGCCCCCTCGCGCCCCGCACTGG
With B6, the Kd with BmILF [4] was 430 nM.

B7: BGIBMGA003213-WT i-motif (MST) (structured_DNA)
DNA: CCCCGCGCCCCCCGCGTCCCCCGCACCCCC
In the case of B7, in the data set with BmILF [4], the Kd was 367 nM.

B8: BmPOUM2-Mut (ssDNA)
DNA: TTGTTGTACTGCTACTCGGATCACTCGAGCATCGTACTGG
Consider B8, for which, in the data set with BmILF [2], the binding result is recorded as “no binding”.

B9: BGIBMGA003213-WT i-motif (EMSA) (structured_DNA)
DNA: CCCCGCGCCCCCCGCGTCCCCCGCACCCCC
In the case of B9, the Kd with BmILF [3] amounted to 78 nM.
